experiment: soluble on expression in E. coli; label from the status in PepcDB or PDB records

Sequence	soluble on expression in E. coli
MGHHHHHHSHMDNCLAAAALNGVDRRSLQRSARLALEVLERAKRRAVDWHALERPKGCMGVLAREAPHLEKQPAAGPQRVLPGEREERPPTLSASFRTMAEFMDYTSSQCGKYYSSVPEEGGATHVYRYHRGESKLHMCLDIGNGQRKDRKKTSLGPGGSYQISEHAPEASQPAENISKDLYIEVYPGTYSVTVGSNDLTKKTHVVAVDSGQSVDLVFPV	not soluble
MGHHHHHHSHMEFLTFLKSDYTHANLVDKALQLLKERILKGDTLAYFLRGQLYFEEGWYEEALEQFEEIKEKDHQATYQLGVMYYDGLGTTLDAEKGVDYMKKILDSPCPKARHLKFAAAYNLGRAYYEGKGVKRSNEEAERLWLIAADNGNPKASVKAQSMLGLYYSTKEPKELEKAFYWHSEACGNGNLESQGALGLMYLYGQGIRQDTEAALQCLREAAERGNVYAQGNLVEYYYKMKFFTKCVAFSKRIADYDEVHDIPMIAQVTDCLPEFIGRGMAMASFYHARCLQLGLGITRDETTAKHYYSKACRLNPALADELHSLLIRQRI	not soluble
MGSDKIHHHHHHHPCARLSVRMSSTGIDRKGVLANRVAVVTGSTSGIGFAIARRLARDGAHVVISSRKQQNVDRAMAKLQGEGLSVAGIVCHVGKAEDREQLVAKALEHCGGVDFLVCSAGVNPLVGSTLGTSEQIWDKILSVNVKSPALLLSQLLPYMENRRGAVILVSSIAAYNPVVALGVYNVSKTALLGLTRTLALELAPKDIRVNCVVPGIIKTDFSKVFHGNESLWKNFKEHHQLQRIGESEDCAGIVSFLCSPDASYVNGENI	not soluble
MSLFRVGRKIARSIHKAITSEDSVDVSELDGVRSLHLGSDTIQSSMRIKDPYALELRYSRGMMVYLLFQKQPRDLVVLGLGGGSIPKYVYHHLPQVKTRVVEINPRIIEVARSHFFTPENDERFEIIEGDAAAFLRDNPATTSMLMMDAFGSNGLPPDLCSQDFFDSCFEALTLDGMCAINLWGSDKHYDVYLQRIETSFHGRILVMPTGRPGNVVVFGFKRAPNDLRWSTLRVRAKALEAEHKIEFLEFVERLREHNPSTSNRLLLESEGHHHHHH	soluble
EQTQNLYIEGDNLDAMKLLKKSYAGKVDVIYIDPPYNTGKDFIFNDTFALSQEESDEKQGRYNEEGQRLFQNTEANGKFHSDWCSMMYARLMLARTLLNDNGIIFISIDDHELANLIKIGNEVFNASNFIDVFNWAKTETPENLSKKSKQIIEYIVCYQKKKNDMKFQGLKKESVSSNGLLNQPNSVGILTFPANKVVTSIPDGVIKAGMYGTDAYDVELLEDTTVRGGLFTAPVKLKAKFKWSQANLDKEIQKGTTIKIPTLKLSPSYEKLEYDPEVPPNLINYKVGVETNEQAGNHQLQFFDKKVFNFPKPVSLIQYLCEFIDTKNKDCIVMDFFSGSGTTAEAVMRMNMKPRKNKVKYILVQLPEDVTETIKKAKTPSEKEIMQNAIDFLTENHKALNICELSKERIRRAGDTIEAECNQRKSKDLPDIGFRVFRIADSNMKDVYYSAK	not soluble
YIKVPVLRLKPSEIHINLKLLKKTADYSSVSALQQTMLYLGRLLVQSGVNTLGVDAVAAFNAASIIDSYVLAPGSSLASSVTTFSAQNRGGGKYDRIPRG	not soluble
SLENLATAPVNQIQETISDNCVVIFSKTSCSYCTMAKKLFHDMNVNYKVVELDLLEYGNQFQDALYKMTGERTVPRIFVNGTFIGGATDTHRLHKEGKLLPLVHQCYLKKSKRKEFQ	soluble
MAHHHHHHMDTTTLKEADMNQMIIQLMEREKKKKKKKNIYEQKKMEPQNYSHMKKFKISPKEEKSLNKEEIKSHLINFFQEQEKIYKDEELNTKNYIIDETKKKEKEVYLNGYYIYCQDFKNEYNNYFNSFIKESEDIKKDLKDLQIQYMDDKILLGNKRKMELDNMLHFYKEKLLDIKNHWDTKNFCDDNLKNIVYDILNVIN	not soluble
MIKSALLVLEDGTQFHGRAIGAEGTAVGEVVFNTSMTGYQEILTDPSYSRQIVTLTYPHIGNVGTNASDEESSAVHAQGLVIRDLPLIASNYRNEEGLSEYLKRHNIVAIADIDTRKLTRLLREKGAQNGCIIVGELSDAALALEKAKAFPGLKGMDLAKEVTTKEMYQWLQGSWTLEGDLPAAKQPEDLPFHVVAYDYGVKRNILRMLVDRGCRLTVVPAQTPAEDVLKLNPDGIFLSNGPGDPEPCDYAITAIKRFLETDIPVFGICLGHQLLALASGAKTVKMKFGHHGGNHPVKDLDASCVMITAQNHGFAVDETSLPSNLRTTHVSLFDGSLQGLHRTDKAAFSFQGHPEASPGPHDAAPLFDHFIELIEAYRASSVSLNCSNSHK	not soluble
MQEIQLSPADDLQQALNNSQNGDVITLGPGSYFGNFIISNQVTLRSNNKGEAIIDSQGKGHGLWLKNSQITIENLTITNWGHDLTDQNSGIYSHGKIDNNKVPSLTIRNNILIGDGFGIWLNQADKAIISHNRVKGNLTLRSADRGNGIQVANVTNSHVFLNEVSETRDGVYVISSQNNIIEQNTMHHLRYGIHYMYSYDNTVKNNTAYDTRAGYALMSSRRLTITGNKTTNSEDYGFLLNFITQSTFSHNYVKNVWTKPENKVLGRDGKGLFVYNSGYNTVKHNIIDTAEIGIHLTAGSENIKIFGNSFINNPTQVKYVSNKKQEWSKDGRGNYWSNYLGWDMGNDGIGDTIFEPNDGIDKLVWQYPEMKMIMDSPAILILRWVQRQFPVLKPPGVKDSFPLMSAPSLTKNEQAATPLAVTTSTFTKSNSAQSANTTSASLKELEHHHHHH	not soluble
MAEKIKINNNVFIYPMPVTLLGANVKGKANLMALGWVSRVNANPPMLGVGVNKSHYTPEGIAENGSFSVNFPYSGMVKKTDYCGLVSGEKVDKSGLFEVFYGELKTAPMIKECTLNLECRVVETLEFPTNYFFVGEIIAAYSEEQYLIQGKPDIKKMDPLLLTMPDNSYWTVGDYAGAALKTGKSLMEKRHHHHHH	soluble
PATDWLSAETFESDLDETRVPEVPSSLHVRPLVTSIVVSWTPPENQNIVVRGYAIGYGIGSPHAQTIKVDYKQRYYTIENLDPSSHYVITLKAFNNVGEGIPLYESAVTRPHT	soluble
MTTLQEAYLAFKSAQIIDLTHQINENSPHFPLLPALEKKDLFTLKDGFHIQQFTVVGQYGTHIDAPIHFVEGGAWLDELPLEDLLLPMYVIDKSQAVADNPNYELSKADILAFEEKYGQIEEGAFVAFRSDWSKRWPSQEEFRNLDTAGAQQTPGWSHEALEFLIHERQVKAVGHETFDTDSGQAVAENGKLVEEYYLLDQGIYQLEVLNNLNLLPATGSFISIAYPHWEKATGSPVRAIAYIAQELEHHHHHH	soluble
MAHHHHHHMPLPPVEDAPNSMARRHYLVERNRLRVKKYEPTRQAFEEETVKLSKQRVEQRVAMLNSWKSSVPLHTDTTRPLPGAARRQKEKDEPAAKHINLQILDEDAALKRERRALLRADILQQKKDREEYLAKWRANEKAYDSALLATNAEFARQMQEQERQAAVATKQYMDMMRASNLKELEAKRAKQREKEEADVAALRTMQENLRLKMEADERRAKDMKRLMQIENEENHSLFKKKQAEDKAREDAWIRTMMEHNAALAERERREAEQKRQQFKADFEDTIAKQKEFRRTHDYDEPQELIRKRNEEAAASAVLIRQEERLRNNEQRKQYREELMKQMREKYEWQLSHLDGV	not soluble
MEDCRGDGSRREIERRRKYGRELQDLREGGEEFEYYFFVSNVFRTKLQKMPGADYSAVKGGGLKLKAGKKNLFKVGKEKKKKNKDDKEKIDPDTVENGGWRKIADEFDMKGGTNVAIEVASGAGSTRTYVAAMDNGKFTIGFPHPEGEGPNPEEIFALVKTPDDSKISLKTGFGRYVGVDSEYQLVAMAEAIGSREQFVLVFQEGKTAFQAVSSPLFLSTVPNKEGHIYVASRTATENEMVNIRTDAIQEGPVDWRSVEDRKNARECETAYVKMYQHSKVDLKNRHIAIDVKDKKGVKKAQADGSAHELLLDRRMKMKSDRYC	not soluble
MSRNNEELQGISLLGNQKTQYPTGYAPEILEAFDNKHPDNDYFVKFVCPEFTSLCPMTGQPDFATIYIRYIPHIKMVESKSLKLYLFSFRNHGDFHEDCVNIIMKDLIALMDPKYIEVFGEFTPRGGIAIHPFANYGKAGTEFETLARKRLFEHDAQ	not soluble
MQTVIFGRSGCPYSVRAKDLAEKLSNERDDFQYQYVDIRAEGITKEDLQQKAGKPVETVPQIFVDQQHIGGYTDFAAWVKENLDA	soluble
MGSDKIHHHHHHMELKDYFPEMQVGPHPLGDKDWMSIKEGDQYVHFPKSCLSEKERLLLEVGLGQCEVLQPLGSPWQRYLLDHQGNPPQLYETSQFIYLNHQQALPDDLVELLQQMIAGLEVILPISATQTAFLCRQAISIKVLRWLEDLLPTLESDFGLALTMFVGNAWYQVAAGTLRECFEEECQLLTAYLRQQSGRKLLTFSGLMLWSLLSHHTFLALTRQFHQFLSPQSDMADVVHALWSEHGNLVQTAQRLYIHRNSLQYKLDKFAQQSGLHLKQLDDLAFAHLFLLKY	not soluble
MGSDKIHHHHHHMSLALQYFKALSDETRLRLIHVLNRHELSVNELVSILEMGQSRVSRHLKILTGAGLLTSRRDGLWVFYSAAAEGDGRAFLDAVTPFVTTDMVLQADLDMAQKIIEERALKTRQFFNAIAEDWDELNREVLGGFDLAGAVAEAMPQCETAVDLGCGTGSVIERMLQRSQQVIGVDGSPRMLELARRRFVEGAERVSLRIGELDHLPLRDGEADFASINMVLHHLSDPGVALGEIRRVLRLGGQLMVTDFDRHDNERMRSDYGDRWLGFEGVQLEGLLREAGFTVRECRRQGVAKGLALHLMLAEKTQQ	not soluble
MFTQRKKWLSGVAAGLLMAASVSASAEEKILHIYNWSDYIAPDTLANFQKETGIKVVYDVFDSNEVLEGKLMAGSTGFDLVVPSASFLERQLSAGVFKPLDKSKLPNEKNLDPELLALVSKHDPDNKYAIPYLWATTGIGYNVEKVKAVLGEDAPVNSWDLVLKPENLEKLKSCGVSFLDAPSEIFATVLNYLGKDPNSTLTADYTGSATDLLLKLRPNIRYFHSSQYINDLANGDICVAVGWAGDIMQASNRAKEAKNGVNVAYSIPKEGALAFFDVFAMPTDAKNQDEAYQFLNYLMRPDVIANISNHVFYANANQAATPLVNAEVRDNPGIYPPADVRAKMFTLKVQDPKIDRVITRAWTKVKSGK	not soluble
MNEYFFPKLTAVEALAPYRLRTTWSTGEVLEVDVGDILRKIPDLAPILDPEAFARVHIAEWEGSVEWFDTEFGRDNVYAWAKEQAGEVSHEMFGDWMHRNNLSLTTAAEALGISRRMVSYYRTAHKIIPRTIWLACLGWEATRPETKTLPRTLPAAYAKGVSASLS	soluble
MSESTSSVGPGRPKDPAKREAILEAAKRLFLCNGYDGSSMEAIASEAGVSKLTVYSHFTDKETLFSEAVKAKCAEQLPALYFQLAEGAPLEKVLLNIARGFHRLINSHEAIALTRLMAAQAGQNPKLSELFFEAGPKQVIDEMERLLEQARRSGKLAFPDARHAAEHFFMLVKGCANYRLLIGCAEPLDEAEGERHVEEVVALFLRAFAAGG	not soluble
MCRLAVFALLAVAAVSVYGQPAGGQDVPPFLRNATPAQLQSFQQLIQANGHLTETALDGKVQAWVNQQGGKVAADWADFQKFIKGQQGQAEAAHQAAVSNFSPAAKKADADLTAISNDSSLSVQAKGQKIQAYLNSLPANVKAELEKAQGQ	soluble
MTKRSDSVAPKERINIKYVPATGDEQAEVELPHKMMVLGDFGLDDSRSLEDRQVMRIDKHTFNNVLNDADVSLAMSVPSALDATPNAELAVNLQFKSIQDFGPDRIARQVPELNKLLQLREALVALKGPLGNVPTFRKQLQQLLNDAHARKQLAQELDLVLEAPKAD	not soluble

Reference: the DeepSol protein solubility set
